These results are taken from patent US20120311745A1.

This assay concerns the target receptor protein(s) / binding site of Cry1Ab core toxin on Brush Border Membrane Vesicles (BBMV's) f (Spodoptera frugiperda).

“Cry1Ab core toxin protein (activated core toxin prepared by trypsin digestion of the Cry1Ab protein) (from UniProt P0A370 29-612)”: the IC50 came to 5 nM.
